# Measured values: patent publication US20160346411A1
# Values joined by “and” are separate entries in the source; they are usually repeats but may differ in a detail not shown here. Equal values may be shown once. Numbered stars: 1 amine (or outer) side, 2 acyl side, 3 side chain; on linkers, the order of the positions; unused ones are H or OH. Bridge positions count the residues as written; N and C are the ends. TRITC = tetramethylrhodamine dye; Cysteamine = C(CS[*:2])N[*:1]; Ahx = NCCCCCC(=O)O
# T1: TRITC-Tn6-MDS
# T1 sequence: QWECPYGLCWIQ
# Columns and labels:
# clotted fibrin (human) [1] = assay: T1-weighted MR at 1.5T: percent change of signal-intensity ratio, phantom 3 (pelleted fibrin) against phantom 1 (fibrinogen), 10 µM probe, liquid above the pellet; 1 pre-treated with PDI and DTT is converted to EP-2104R
# clotted fibrin (human), sequence (P50402 whole entry, the tested form may be a part): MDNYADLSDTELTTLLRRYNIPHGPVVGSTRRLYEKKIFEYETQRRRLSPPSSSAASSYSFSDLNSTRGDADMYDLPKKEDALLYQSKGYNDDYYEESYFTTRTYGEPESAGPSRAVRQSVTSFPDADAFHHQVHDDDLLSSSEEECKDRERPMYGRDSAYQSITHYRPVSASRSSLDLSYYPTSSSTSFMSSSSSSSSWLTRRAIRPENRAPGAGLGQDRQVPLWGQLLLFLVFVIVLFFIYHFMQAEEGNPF
# clotted fibrin (human) [2] = assay: T1-weighted MR at 1.5T: percent change of signal-intensity ratio, phantom 3 (pelleted fibrin) against phantom 1 (fibrinogen), 10 µM probe, region of the pellet
# clotted fibrin (human) [3] = assay: T1-weighted MR at 1.5T: percent change of signal-intensity ratio, phantom 3 (pelleted fibrin) against phantom 1 (fibrinogen), 10 µM probe, region of the pellet; 1 pre-treated with PDI and DTT is converted to EP-2104R
# clotted fibrin (human) [4] = assay: T1-weighted MR at 1.5T: percent change of signal-intensity ratio, phantom 2 (clotted fibrin) against phantom 1 (fibrinogen), 10 µM probe
# clotted fibrin (human) [5] = assay: T1-weighted MR at 1.5T: percent change of signal-intensity ratio, phantom 2 (clotted fibrin) against phantom 1 (fibrinogen), 10 µM probe; 1 pre-treated with PDI and DTT is converted to EP-2104R
# clotted fibrin (human) [6] = assay: T1-weighted MR at 1.5T: percent change of signal-intensity ratio, phantom 3 (pelleted fibrin) against phantom 1 (fibrinogen), 10 µM probe, liquid above the pellet
# [7] = molecular target: DD(E), soluble protein fragment of fibrin (human) (UniProt P02671); assay: competitive displacement of TRITC-Tn6 (0.1 µM) from DD(E) (2 µM), fluorescence anisotropy, least-squares regression
# [8] = molecular target: DD(E), soluble protein fragment of fibrin (human) (UniProt P02671); assay: competitive displacement of TRITC-Tn6 (0.1 µM) from DD(E) (2 µM), fluorescence anisotropy
# TRITC-Tn6-MDS = system: T1, TRITC-Tn6-MDS
# [9] = molecular target: DD(E), soluble protein fragment of fibrin (human) (UniProt P02671); assay: direct titration of the TRITC probe (0.1 µM) with DD(E) up to about 32 µM, fluorescence anisotropy plotted as % probe bound
# [10] = molecular target: DD(E), soluble protein fragment of fibrin (human) (UniProt P02671); assay: fluorescence anisotropy, serial dilution of DD(E) mixed with the probe; reference is cyclic TRITC-Tn6
molecule,measurement,setting,value
EP-2104R (peptide),"%Δ SIR, upper region",clotted fibrin (human) [1],-22%
same,"%Δ SIR, lower region",clotted fibrin (human) [2],49% and 69%
same,"%Δ SIR, lower region",clotted fibrin (human) [3],36%
same,%Δ SIR,clotted fibrin (human) [4],8% and 11%
same,%Δ SIR,clotted fibrin (human) [5],12%
same,"%Δ SIR, upper region",clotted fibrin (human) [6],-24% and -21%
same,Kd,[7],0.16 µM
same,IC50 (read off the curve),[8],2 µM
protein disulfide isomerase,"conversion of Compound 1 to EP-2104R, followed by 1/T1 in the presence of 12.0 µM DD(E)",Compound 1,The rate of conversion of 1 to EP-2104R was most rapid for the reaction performed under condition D in which both PDI and DTT were present simultaneously
same,"conversion of Compound 1 to EP-2104R, seen as fall of the anisotropy of TRITC-Tn6 on DD(E)",Compound 1,"with 1 mg/L PDI plus 10 µM DTT the anisotropy falls from about 0.25 to about 0.183 in about 1170 s, with DTT alone only to about 0.233; with PDI alone it stays at about 0.25 like untreated"
same,"conversion of Compound 1 to EP-2104R, seen as rise of 1/T1 with 12.0 µM DD(E)",Compound 1,"with 3 mg/L PDI plus 10.0 µM DTT 1/T1 rises from about 0.69 to about 0.825 s-1 in about 3750 s, with DTT alone from about 0.65 to about 0.715 s-1; with PDI alone it stays at about 0.64 s-1 like untreated"
same,"conversion of the mixed-disulfide form to the cyclized form, followed by LC-MS",TRITC-Tn6-MDS,"PDI alone does not promote cyclization of the probe, but PDI in the presence of a reducing agent like dithiothreitol (DTT) promotes rapid conversion of the probe to the desired product compared to DTT alone"
same,real-time change in fluorescence anisotropy in the presence of 2 µM DD(E),TRITC-Tn6-MDS,it is evident that only when both PDI and DTT are present simultaneously that the probe is efficiently activated
{TRITC-Ahx}-QWECPYGLCWIQ-NH2 (disulfide 4-9) [TRITC-Tn6 peptide (cyclic form)],Kd,[9],0.51 µM
{TRITC-Ahx}-QWEC(Cysteamine)PYGLC(Cysteamine)WIQ-NH2 [TRITC-Tn6-MDS],fold Kd relative to the cyclic form,[10],20 fold
same,Kd,[9],9.65 µM
